Results published in US6635431.

Legend:
[1] = target: α subunit of rat LSR (product of cDNA LSR-Rn-2097) (rat) (UniProt Q9WU74); test: flotation of 35S-labelled in vitro translated LSR with 100 µg/ml LDL and 1 mM oleate, against no oleate
[2] = target: β subunit of rat LSR (product of cDNA LSR-Rn-1893) (rat) (UniProt Q9WU74); test: as above
Chain of β subunit of rat LSR (product of cDNA LSR-Rn-1893) (rat) (Q9WU74 other isoform, or with tags, fused parts or gaps limits assumed): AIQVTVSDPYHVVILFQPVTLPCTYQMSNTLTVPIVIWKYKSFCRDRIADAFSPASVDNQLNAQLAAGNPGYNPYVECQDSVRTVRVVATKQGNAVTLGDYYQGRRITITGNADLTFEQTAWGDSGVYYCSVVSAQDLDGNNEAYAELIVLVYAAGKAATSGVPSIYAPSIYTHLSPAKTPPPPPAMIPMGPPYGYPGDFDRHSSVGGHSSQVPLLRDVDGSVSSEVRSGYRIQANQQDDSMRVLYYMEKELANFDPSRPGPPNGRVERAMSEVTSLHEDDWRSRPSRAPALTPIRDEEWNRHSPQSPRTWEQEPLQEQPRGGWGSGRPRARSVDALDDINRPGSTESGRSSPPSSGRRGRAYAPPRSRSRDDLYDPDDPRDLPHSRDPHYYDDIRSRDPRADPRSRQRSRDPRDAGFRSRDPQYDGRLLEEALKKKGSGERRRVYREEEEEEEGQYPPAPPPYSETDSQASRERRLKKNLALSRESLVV

Chain of α subunit of rat LSR (product of cDNA LSR-Rn-2097) (rat) (Q9WU74 36-593 limits assumed): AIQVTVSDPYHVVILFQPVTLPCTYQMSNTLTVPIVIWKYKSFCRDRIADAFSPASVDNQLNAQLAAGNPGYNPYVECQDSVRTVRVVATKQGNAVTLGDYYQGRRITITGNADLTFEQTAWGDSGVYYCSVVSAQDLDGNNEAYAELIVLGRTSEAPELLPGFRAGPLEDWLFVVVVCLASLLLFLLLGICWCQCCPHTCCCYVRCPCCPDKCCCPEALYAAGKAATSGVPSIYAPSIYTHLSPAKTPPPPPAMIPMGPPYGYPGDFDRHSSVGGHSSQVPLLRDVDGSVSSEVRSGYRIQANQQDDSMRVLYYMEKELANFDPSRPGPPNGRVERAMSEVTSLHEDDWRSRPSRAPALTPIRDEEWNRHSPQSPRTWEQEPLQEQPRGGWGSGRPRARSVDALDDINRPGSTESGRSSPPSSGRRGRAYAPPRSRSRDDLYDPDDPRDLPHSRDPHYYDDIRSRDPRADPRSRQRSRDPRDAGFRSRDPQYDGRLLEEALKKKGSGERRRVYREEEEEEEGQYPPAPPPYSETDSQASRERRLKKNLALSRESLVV

factor of increase of LDL binding by oleate [1]: 5 fold | factor of increase of LDL binding by oleate [2]: 2 fold
Substance: LDL (low-density lipoprotein, 1.025<d<1.055 g/ml) isolated from plasma of volunteers, P04114 28-4563
